Experimental data as given in the supplement of paper PMC6379048.

Legend:
Experiment in all cases: EC50 of free RNA motif oligo competing protein binding to immobilised probe
[1] = target: T1, LSM1 (UniProt O15116)
T1 sequence: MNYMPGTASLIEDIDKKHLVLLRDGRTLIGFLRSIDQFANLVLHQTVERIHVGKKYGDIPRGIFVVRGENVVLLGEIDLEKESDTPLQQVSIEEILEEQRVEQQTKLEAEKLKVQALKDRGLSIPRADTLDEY
Method in brief: (§1)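 Free RNA oligos (0 nM to 30 μM) competed for 1 h at 4°C in HEK293-FT lysate (2.5 mg protein/well) before a 30 min, 4°C pulldown with the same oligos on NHS-Sepharose beads. Bound proteins were quantified by label-free LC-MS/MS and normalised to the control. Kd was found by multiplying EC50, from a four-parameter log-logistic fit, by a protein-dependent depletion factor.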

[2] = target: T2, FUBP3 (UniProt Q96I24)
T2 sequence: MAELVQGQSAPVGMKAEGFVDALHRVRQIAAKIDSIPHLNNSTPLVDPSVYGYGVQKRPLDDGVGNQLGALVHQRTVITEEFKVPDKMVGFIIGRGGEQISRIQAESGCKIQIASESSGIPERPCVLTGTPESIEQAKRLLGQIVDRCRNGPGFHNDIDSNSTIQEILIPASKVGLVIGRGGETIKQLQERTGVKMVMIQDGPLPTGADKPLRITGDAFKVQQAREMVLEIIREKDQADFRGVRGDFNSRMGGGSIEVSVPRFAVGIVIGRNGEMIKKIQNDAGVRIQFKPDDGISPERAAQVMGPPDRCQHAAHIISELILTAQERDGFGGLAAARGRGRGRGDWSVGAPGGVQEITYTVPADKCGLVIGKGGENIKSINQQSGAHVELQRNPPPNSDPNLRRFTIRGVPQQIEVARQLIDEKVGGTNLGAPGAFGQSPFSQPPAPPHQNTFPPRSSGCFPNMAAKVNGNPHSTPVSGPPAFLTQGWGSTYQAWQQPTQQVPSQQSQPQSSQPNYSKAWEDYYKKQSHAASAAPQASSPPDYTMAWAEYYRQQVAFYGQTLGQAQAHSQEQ
Method in brief: as §1

[3] = target: T3, HNRNPD (UniProt Q14103)
T3 sequence: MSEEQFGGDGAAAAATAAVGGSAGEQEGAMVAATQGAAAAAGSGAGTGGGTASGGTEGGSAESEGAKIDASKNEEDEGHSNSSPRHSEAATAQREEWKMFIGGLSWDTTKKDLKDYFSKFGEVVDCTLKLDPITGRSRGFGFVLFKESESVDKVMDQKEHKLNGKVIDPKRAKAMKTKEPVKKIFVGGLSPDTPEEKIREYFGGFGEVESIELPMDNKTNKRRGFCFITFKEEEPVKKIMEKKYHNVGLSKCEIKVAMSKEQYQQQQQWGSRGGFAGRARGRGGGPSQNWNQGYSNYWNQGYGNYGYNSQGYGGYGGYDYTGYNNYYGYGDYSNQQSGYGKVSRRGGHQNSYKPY
Method in brief: as §1

[4] = target: T4, PATL1 (UniProt Q86TB9)
T4 sequence: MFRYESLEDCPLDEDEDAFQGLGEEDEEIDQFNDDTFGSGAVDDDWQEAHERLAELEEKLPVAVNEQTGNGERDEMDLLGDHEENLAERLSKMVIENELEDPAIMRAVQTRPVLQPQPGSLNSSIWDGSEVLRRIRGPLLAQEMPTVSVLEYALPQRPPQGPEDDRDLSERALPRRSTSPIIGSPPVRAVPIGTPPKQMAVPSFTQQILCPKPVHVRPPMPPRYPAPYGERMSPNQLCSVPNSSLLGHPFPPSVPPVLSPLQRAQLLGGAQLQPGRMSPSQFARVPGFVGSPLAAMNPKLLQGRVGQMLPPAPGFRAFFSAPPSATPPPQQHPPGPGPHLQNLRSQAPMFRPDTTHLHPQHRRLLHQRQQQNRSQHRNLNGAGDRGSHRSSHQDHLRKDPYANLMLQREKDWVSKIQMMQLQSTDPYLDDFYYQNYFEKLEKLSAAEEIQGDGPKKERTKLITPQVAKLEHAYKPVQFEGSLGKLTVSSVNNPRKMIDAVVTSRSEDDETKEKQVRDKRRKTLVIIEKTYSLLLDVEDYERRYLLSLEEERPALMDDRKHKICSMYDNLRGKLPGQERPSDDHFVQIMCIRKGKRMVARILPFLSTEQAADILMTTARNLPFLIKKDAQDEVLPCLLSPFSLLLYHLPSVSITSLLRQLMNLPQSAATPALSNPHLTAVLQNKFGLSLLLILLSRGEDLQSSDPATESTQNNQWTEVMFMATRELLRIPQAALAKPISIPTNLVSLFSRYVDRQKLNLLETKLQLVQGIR
Method in brief: as §1

[5] = target: T5, MEX3B (UniProt Q6ZN04)
T5 sequence: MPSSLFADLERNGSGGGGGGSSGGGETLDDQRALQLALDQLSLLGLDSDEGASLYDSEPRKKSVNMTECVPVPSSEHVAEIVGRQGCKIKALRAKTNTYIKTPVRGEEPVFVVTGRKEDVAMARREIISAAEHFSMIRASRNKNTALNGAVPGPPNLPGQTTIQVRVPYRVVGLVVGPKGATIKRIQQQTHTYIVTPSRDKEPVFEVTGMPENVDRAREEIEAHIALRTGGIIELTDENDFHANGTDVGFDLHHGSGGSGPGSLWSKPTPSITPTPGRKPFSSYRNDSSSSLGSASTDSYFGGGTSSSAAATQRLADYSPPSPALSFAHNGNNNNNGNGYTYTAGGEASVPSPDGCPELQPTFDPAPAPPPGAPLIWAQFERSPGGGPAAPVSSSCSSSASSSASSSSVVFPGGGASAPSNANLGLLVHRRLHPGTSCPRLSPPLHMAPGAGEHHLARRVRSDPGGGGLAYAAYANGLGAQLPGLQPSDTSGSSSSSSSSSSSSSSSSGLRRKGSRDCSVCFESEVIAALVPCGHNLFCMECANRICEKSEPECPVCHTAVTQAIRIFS
Method in brief: as §1

[6] = target: SRSF9 (UniProt Q13242)
Sequence of SRSF9 (Q13242 whole entry): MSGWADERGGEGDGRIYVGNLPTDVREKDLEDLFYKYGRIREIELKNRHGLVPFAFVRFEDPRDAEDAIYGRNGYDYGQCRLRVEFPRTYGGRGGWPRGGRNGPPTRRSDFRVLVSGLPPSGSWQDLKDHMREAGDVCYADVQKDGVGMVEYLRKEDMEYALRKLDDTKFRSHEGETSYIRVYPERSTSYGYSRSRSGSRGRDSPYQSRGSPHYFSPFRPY
Method in brief: as §1

**Q.** What does the source list for AAUAAA?
**A.** EC50 [1]: 0.188 µM; EC50 [2]: 2.15 µM; EC50 [3]: 6.52 µM; EC50 [4]: 0.468 µM; EC50 [5]: 1.64 µM

**Q.** Which EC50 [6] does the source give for CUGUCCU here?
**A.** 4.53 µM

**Q.** Which EC50 [1] does the source give for UAUUUAU here?
**A.** 0.395 µM

**Q.** What about the EC50 [2] of the same sequence?
**A.** 0.802 µM

**Q.** What about the EC50 [3] of the same sequence?
**A.** 0.653 µM

**Q.** What about the EC50 [6] of the same sequence?
**A.** 8.03 µM

**Q.** And the EC50 [4]?
**A.** 0.407 µM

**Q.** What about the EC50 [5] of the same sequence?
**A.** 0.728 µM
